Columns and labels:
Assay in all cases: SPR, antibody captured, C2 as analyte;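 note: biacore at 37 °C, anti-C2 mAbs held by immobilised goat anti-human IgG, C2 alanine or serine mutants injected, double-referenced sensorgrams fitted to a 1:1 kinetic or steady-state model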
human C2 H331A = molecular target: T1, human C2 H331A (human, UniProt P06681 21-752)
T1 sequence: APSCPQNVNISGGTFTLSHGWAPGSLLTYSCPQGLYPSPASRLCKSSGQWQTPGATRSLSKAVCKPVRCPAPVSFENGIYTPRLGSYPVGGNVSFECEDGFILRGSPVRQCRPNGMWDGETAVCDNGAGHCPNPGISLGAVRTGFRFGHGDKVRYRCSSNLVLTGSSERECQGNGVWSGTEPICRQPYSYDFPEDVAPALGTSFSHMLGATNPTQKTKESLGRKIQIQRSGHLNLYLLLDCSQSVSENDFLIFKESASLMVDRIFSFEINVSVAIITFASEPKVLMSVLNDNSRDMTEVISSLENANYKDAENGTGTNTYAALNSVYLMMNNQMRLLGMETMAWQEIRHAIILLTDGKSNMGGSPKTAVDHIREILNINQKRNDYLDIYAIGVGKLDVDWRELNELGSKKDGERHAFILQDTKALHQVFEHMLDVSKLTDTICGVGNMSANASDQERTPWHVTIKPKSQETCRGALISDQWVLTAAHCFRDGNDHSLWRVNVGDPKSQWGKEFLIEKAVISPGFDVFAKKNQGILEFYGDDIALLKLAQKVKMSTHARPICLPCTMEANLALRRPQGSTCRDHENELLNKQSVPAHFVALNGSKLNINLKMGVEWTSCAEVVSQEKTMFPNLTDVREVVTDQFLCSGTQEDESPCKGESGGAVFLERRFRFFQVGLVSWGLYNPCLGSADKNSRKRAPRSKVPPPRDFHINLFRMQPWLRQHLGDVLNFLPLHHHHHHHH

human C2 K430A = molecular target: T2, human C2 K430A (human, UniProt P06681 21-752)
T2 sequence: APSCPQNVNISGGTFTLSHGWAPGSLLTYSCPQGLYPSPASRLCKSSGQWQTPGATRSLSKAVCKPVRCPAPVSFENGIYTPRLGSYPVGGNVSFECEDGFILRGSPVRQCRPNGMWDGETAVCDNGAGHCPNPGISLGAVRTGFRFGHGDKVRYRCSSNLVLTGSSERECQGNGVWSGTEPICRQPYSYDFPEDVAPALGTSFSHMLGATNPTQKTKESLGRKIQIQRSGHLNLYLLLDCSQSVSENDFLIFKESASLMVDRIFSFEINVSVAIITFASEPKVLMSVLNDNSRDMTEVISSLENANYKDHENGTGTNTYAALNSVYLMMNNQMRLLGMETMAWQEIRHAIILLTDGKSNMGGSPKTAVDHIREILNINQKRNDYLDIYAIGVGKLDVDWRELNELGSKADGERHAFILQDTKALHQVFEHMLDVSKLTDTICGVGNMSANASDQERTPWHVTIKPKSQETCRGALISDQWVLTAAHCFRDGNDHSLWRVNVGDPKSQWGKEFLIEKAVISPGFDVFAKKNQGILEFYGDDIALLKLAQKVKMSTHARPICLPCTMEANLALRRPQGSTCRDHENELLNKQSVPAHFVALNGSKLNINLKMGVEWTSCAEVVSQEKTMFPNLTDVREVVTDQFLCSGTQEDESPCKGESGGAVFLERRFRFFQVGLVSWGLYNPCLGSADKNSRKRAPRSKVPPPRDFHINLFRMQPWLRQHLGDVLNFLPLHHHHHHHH

human C2 F437A = molecular target: T3, human C2 F437A (human, UniProt P06681 21-752)
T3 sequence: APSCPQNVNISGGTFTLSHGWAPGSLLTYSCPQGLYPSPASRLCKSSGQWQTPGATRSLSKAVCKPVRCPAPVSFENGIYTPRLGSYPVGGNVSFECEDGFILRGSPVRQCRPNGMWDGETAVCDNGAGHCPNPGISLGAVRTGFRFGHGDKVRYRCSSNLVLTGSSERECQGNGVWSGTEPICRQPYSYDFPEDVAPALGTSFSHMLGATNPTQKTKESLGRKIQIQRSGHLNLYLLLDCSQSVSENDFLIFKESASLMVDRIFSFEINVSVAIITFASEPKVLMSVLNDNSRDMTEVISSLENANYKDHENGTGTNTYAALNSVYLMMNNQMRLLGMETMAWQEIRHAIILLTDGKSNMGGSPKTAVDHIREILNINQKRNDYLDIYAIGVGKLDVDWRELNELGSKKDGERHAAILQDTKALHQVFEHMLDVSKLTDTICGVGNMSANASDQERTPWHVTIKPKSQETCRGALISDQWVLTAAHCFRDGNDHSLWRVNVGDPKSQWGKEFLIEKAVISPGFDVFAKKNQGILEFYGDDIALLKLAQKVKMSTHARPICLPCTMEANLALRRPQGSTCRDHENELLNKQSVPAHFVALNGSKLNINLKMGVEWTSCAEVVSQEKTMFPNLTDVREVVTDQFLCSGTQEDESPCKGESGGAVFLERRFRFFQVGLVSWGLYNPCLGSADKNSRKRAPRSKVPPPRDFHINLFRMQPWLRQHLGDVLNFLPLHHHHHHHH

B1: RF16-242 (antibody, human IgG4 S228P, lambda, V domains shown)
VH: EVQLLQSGAEVKKPGESLKISCKGSGYSFTSYWIGWVRQMPGKGLEWMGIIYPGDSDTRYSPSFQGQVTISADKSISTAYLQWSSLKASDTAMYYCARRGHYGDYFDYWGQGTLVTVSS
VL: SYELTQPPSVSVSPGQTARITCSGDALPKKYAYWYHQKSGQAPVLVIYEDRRRPSEIPERFSGSSSGTMATLTITGAQVEDEGVYFCYSRDRAGNQRVFGGGTQLTVLG
notes: pH-dependent anti-C2 antibody from a phage display library
Human C2 H331A
  Kd: 191 nM
Human C2 K430A
  Kd: 91 nM
Human C2 F437A
  Kd: 107 nM
